The test has as its system γδ T cells. Briefly: Expansion of γδ T cell population using pamidronate or IPP (Example 1). It is filed as cell-based. The note with it: human PBMCs, IL-2 20 U/mL, immobilized FN fragment, day 14. Here is the method:
Apheresis was performed, or 50 mL blood was collected from human healthy donor obtained with informed consent. The collected blood was then diluted 2-folds with phosphate buffered saline (manufactured by NEXELL or SIGMA, hereinafter referred to as “PBS”), overlaid on Ficoll-paque (manufactured by GE Healthcare Bio-Science), and centrifuged at 600×g for 20 minutes. Peripheral blood mononuclear cells (hereinafter referred to as “PBMCs”) in an intermediate layer were collected with a pipette, and washed. The collected PBMCs were suspended in a storage solution composed of 90% (v/v) FBS (manufactured by MP Biomedicals, LLC)/10% (v/v) DMSO (manufactured by SIGMA), or a storage solution composed of equivolumes of CP-1 (manufactured by KYOKUTO PHARMACEUTICAL INDUSTRIAL CO., LTD.) containing 8% (w/v) human serum albumin (name of formulation: Buminate, manufactured by Baxter Limited, hereinafter referred as to “HSA”) and an RPMI 1640 medium (manufactured by SIGMA), and stored in liquid nitrogen. During expansion of γδ T cells, these stored PBMCs were rapidly melted in water bath at 37° C., and washed with RPMI 1640 medium containing 10 μg/mL DNase (manufactured by Calbiochem), 10% (v/v) human AB serum (manufactured by Cambrex), 2 mM L-glutamine (manufactured by Cambrex), and 100 μg/mL streptomycin sulfate (manufactured by MEIJI SEIKA KAISHA, LTD.) (hereinafter referred to as “10HRPMI+L-Gln”) or Iscove's Modified Dulbecco's Medium (IMDM) (manufactured by Invitrogen) containing 10 μg/mL DNase and 10% (v/v) human AB serum (hereinafter referred to as “10HIMDM”). Thereafter, the number of live cells was calculated by trypan blue staining method. The cells were subjected to each experiment.
A fibronectin fragment (hereinafter referred to as a “FN fragment”) (CH-296 and H296-H296) was immobilized on a culture equipment used in the following experiment. Concretely, a buffer having a pH of 5.0 composed of 2.20% (w/v) sodium citrate dihydrate, 0.80% (w/v) citric acid monohydrate and 2.20% (w/v) glucose (all manufactured by Nakalai Tesque Inc.) (hereinafter referred to as “ACD-A solution (pH 5.0)”), containing CH-296 (final concentration: 25 μg/mL) or H296-H296 (final concentration: 3 μg/mL), was added to a 24-well cell culture plate (manufactured by Becton Dickinson or Corning), in a volume of 240 μL each.
These culture equipments was incubated for 5 hours or more at room temperature. Immediately before use, the ACD-A solution (pH 5.0) containing CH-296 or H296-H296 was removed by aspiration from these culture equipments, and thereafter each well was washed with twice PBS, and then once with RPMI 1640 medium, and the culture equipments were subjected to each experiment. As a control, a plate to which nothing was immobilized was used.
PBMCs prepared in Example 1-(1) were suspended in 10HRPMI+L-Gln or 10HIMDM so as to have a concentration of 1×10^6 cells/mL, to prepare a cell suspension. Thereafter, the above-mentioned cell suspension was added to a plate to which nothing was immobilized or a plate immobilized with CH-296 or H296-H296, prepared in Example 1-(2), in a volume of 1 mL/well each. […]

Where [1] appears, read: medium 10HRPMI + L-Gln, stimulant pamidronate 5 μM.

With “CH-296: polypeptide comprising a cell binding domain, a heparin binding domain and a CS-1 domain of fibronectin (SEQ ID NO: 13)”, the “Expansion Fold of γδ T Cells (Folds) Fourteenth Day of Culture” value (from here on “Expansion Fold of γδ T Cells”) under setting [1] is recorded as “×3.85 Folds”.

B1: H296-H296: modified fibronectin fragment in which two H-296's are connected to each other (SEQ ID NO: 22) (protein)
chain: AIPAPTDLKFTQVTPTSLSAQWTPPNVQLTGYRVRVTPKEKTGPMKEINLAPDSSSVVVSGLMVATKYEVSVYALKDTLTSRPAQGVVTTLENVSPPRRARVTDATETTITISWRTKTETITGFQVDAVPANGQTPIQRTIKPDVRSYTITGLQPGTDYKIYLYTLNDNARSSPVVIDASTAIDAPSNLRFLATTPNSLLVSWQPPRARITGYIIKYEKPGSPPREVVPRPRPGVTEATITGLEPGTEYTIYVIALKNNQKSEPLIGRKKTDELPQLVTLPHPNLHGPEILDVPSTAMAIPAPTDLKFTQVTPTSLSAQWTPPNVQLTGYRVRVTPKEKTGPMKEINLAPDSSSVVVSGLMVATKYEVSVYALKDTLTSRPAQGVVTTLENVSPPRRARVTDATETTITISWRTKTETITGFQVDAVPANGQTPIQRTIKPDVRSYTITGLQPGTDYKIYLYTLNDNARSSPVVIDASTAIDAPSNLRFLATTPNSLLVSWQPPRARITGYIIKYEKPGSPPREVVPRPRPGVTEATITGLEPGTEYTIYVIALKNNQKSEPLIGRKKTDELPQLVTLPHPNLHGPEILDVPST
modifications: Fibronectin fragment named H296-H296
Regarding B1, the “Expansion Fold of γδ T Cells” value (medium 10HIMDM, stimulant IPP 5 μM) is listed as “×4.39 Folds”; the “Expansion Fold of γδ T Cells” value (medium 10HIMDM, stimulant pamidronate 5 μM) is reported as “×3.18 Folds”; the “Expansion Fold of γδ T Cells” value (medium 10HRPMI + L-Gln, stimulant IPP 5 μM) is “×16.27 Folds”; the “Expansion Fold of γδ T Cells” value under setting [1] is on record as “×5.76 Folds”.

The values are drawn from patent US20110158954A1, “METHOD FOR PRODUCING GAMMA DELTA T CELL POPULATION” (priority 2007, published 2011).
